Test results reported in publication PMC12812394.

Target: Pi65-nLUC (rice (Oryza sativa ssp. japonica cv. GY129))
Assay: split reporter (BiFC, NanoBiT); NanoLuc luciferase complementation (nLUC/cLUC fusions, 35S promoter) in co-infiltrated Nicotiana benthamiana leaves, 48-72 h at 22 °C; whole-leaf luminescence with furimazine, 1-min exposure

luminescence, fold over the negative controls: 12.3 fold
B1: OsAPx4-cLUC (enzyme)
chain: MAAPVVDAEYLRQVDRARRHLRALISSKGCAPIMLRLAWHDAGTYDVNTKTGGANGSIRYEEEYTHGSNAGLKIAIDLLEPIKAKSPKITYADLYQLAGVVAVEVTGGPTVEFIPGRRDSSVCPREGRLPDAKKGALHLRDIFYRMGLSDKDIVALSGGHTLGRAHPERSGFEGAWTQEPLKFDNSYFLELLKGESEGLLKLPTDKALLEDPSFRRYVDLYARDEDTFFKDYAESHKKLSELGFTPRSSGPASTKSDLSTGAVLAQSAVGVAVAAAVVIVSYLYEASKKSK
